B1: FabB-didAb, -dAbL1 (CK-G4Sx2) & dAbH1 (CH1-G4Sx2) (bispecific antibody)
heavy: ASTKGPSVFPLAPSSKSTSGGTAALGCLVKDYFPEPVTVSWNSGALTSGVHTFPAVLQSSGLYSLSSVVTVPSSSLGTQTYICNVNHKPSNTKVDKKVEPKSCGGGGSGGGGSEVQLLESGGGLVQPGGSLRLSCAVSGIDLSNYAINWVRQAPGKGLEWIGIIWASGTTFYATWAKGRFTISRDSTTVYLQMNSLRAEDTAVYYCARTVPGYSTAPYFDLWGQGTLVTVSS
light: RTVAAPSVFIFPPSDEQLKSGTASVVCLLNNFYPREAKVQWKVDNALQSGNSQESVTEQDSKDSTYSLSSTLTLSKADYEKHKVYACEVTHQGLSSPVTKSFNRGECGGGGSGGGGSDIVMTQSPSSVSASVGDRVTITCQSSPSVWSNFLSWYQQKPGKAPKLLIYEASKLTSGVPSRFKGSGSGTDFTLTISSLQPEDFATYYCGGGYSSISDTTFGGGTKVEIK
notes: also called FabB-645Fv (G4Sx2); FabB-645Fv (2xG4S)
B2: FabB-645dsFv (S3xG4S) with Fv heavy mutation T100aA (bispecific antibody, part only; not given: anti-OX40 Fab and linkers, V domains shown, not shown: another chain or arm of the molecule; large carriers; small tags and cut ends)
VH: EVQLLESGGGLVQPGGSLRLSCAVSGIDLSNYAINWVRQAPGKCLEWIGIIWASGTTFYATWAKGRFTISRDSTTVYLQMNSLRAEDTAVYYCARTVPGYSAAPYFDLWGQGTLVTVSS
VL: DIVMTQSPSSVSASVGDRVTITCQSSPSVWSNFLSWYQQKPGKAPKLLIYEASKLTSGVPSRFKGSGSGTDFTLTISSLQPEDFATYYCGGGYSSISDTTFGCGTKVEIK
modifications: Interchain disulfide between VH Cys44 and VL Cys100 (Kabat) of the dsFv

How the values were obtained:
[1] = biological target: T1, human serum albumin (human, UniProt P02768 25-609); assay: SPR (Biacore), purified construct captured, HSA injected
T1 construct: also called HSA; HumanSA

[2] = biological target: T2, mouse serum albumin (mouse, UniProt P07724 25-608); assay: SPR (Biacore), purified construct captured, MSA injected
T2 construct: also called MSA; MurineSA

[3] = biological target: T1, human serum albumin; assay: SPR (Biacore)

koff [1] | koff [2] | Kd [3] | koff [3] | kon [3] | Binder
0.000206 s⁻¹ | 0.000182 s⁻¹ |  |  |  | B1
 |  | 51.6 nM | 0.0186 s⁻¹ | 360000 M⁻¹ s⁻¹ | B2

— US20200048372A1 (UCB, published 2020)
